According to US20050222029A1 (MYRIAD GENETICS, published 2005):

Assays:
Pallid 21-172 = target: T1, Pallid 21-172 (human, UniProt Q9UL45 21-172); test: yeast two-hybrid
T1 construct: prey (Gal4 AD-HA fusion)
T1 sequence (looked up): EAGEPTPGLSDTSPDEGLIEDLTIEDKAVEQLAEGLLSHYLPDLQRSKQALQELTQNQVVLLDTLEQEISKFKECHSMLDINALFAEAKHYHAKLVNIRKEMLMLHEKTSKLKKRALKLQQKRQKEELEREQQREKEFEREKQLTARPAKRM

Hook2 protein 290-555 = target: T2, Hook2 protein 290-555 (human, UniProt Q96ED9 290-555); test: yeast two-hybrid
T2 construct: prey (Gal4 AD-HA fusion)
T2 sequence (looked up): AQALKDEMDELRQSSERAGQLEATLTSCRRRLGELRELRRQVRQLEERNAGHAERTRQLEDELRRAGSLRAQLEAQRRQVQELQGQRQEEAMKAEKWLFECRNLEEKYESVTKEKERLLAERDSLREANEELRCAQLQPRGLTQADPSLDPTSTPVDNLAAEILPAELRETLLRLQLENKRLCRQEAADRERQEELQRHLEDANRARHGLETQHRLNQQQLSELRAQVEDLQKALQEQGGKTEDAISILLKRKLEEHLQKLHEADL

[1] = target: T3, GTPase-activiating protein 1 1419-1657 (human, UniProt P46940 1419-1657); test: yeast two-hybrid
T3 construct: prey (Gal4 AD-HA fusion); also called IQGAP1; IQGAP
T3 sequence (looked up): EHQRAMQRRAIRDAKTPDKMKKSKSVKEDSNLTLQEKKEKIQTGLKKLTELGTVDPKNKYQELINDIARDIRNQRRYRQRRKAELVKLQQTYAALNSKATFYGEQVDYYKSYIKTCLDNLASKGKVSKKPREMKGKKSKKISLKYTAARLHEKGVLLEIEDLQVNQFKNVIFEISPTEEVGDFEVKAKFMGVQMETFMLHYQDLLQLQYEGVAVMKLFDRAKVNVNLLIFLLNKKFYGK

Hook2 protein 201-559 = target: T4, Hook2 protein 201-559 (human, UniProt Q96ED9 201-559); test: yeast two-hybrid
T4 construct: prey (Gal4 AD-HA fusion)
T4 sequence (looked up): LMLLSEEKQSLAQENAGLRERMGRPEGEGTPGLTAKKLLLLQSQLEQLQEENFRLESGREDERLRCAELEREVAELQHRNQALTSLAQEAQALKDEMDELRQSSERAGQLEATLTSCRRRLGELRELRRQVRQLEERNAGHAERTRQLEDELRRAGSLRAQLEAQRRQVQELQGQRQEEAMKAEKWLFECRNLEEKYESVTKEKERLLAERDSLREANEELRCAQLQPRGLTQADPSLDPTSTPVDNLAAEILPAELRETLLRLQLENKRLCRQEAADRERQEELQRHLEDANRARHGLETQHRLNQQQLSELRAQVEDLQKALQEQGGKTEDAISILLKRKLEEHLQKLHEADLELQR

Intersection 1 387-611 = target: T5, Intersection 1 387-611 (human, UniProt Q15811 387-611); test: yeast two-hybrid
T5 construct: prey (Gal4 AD-HA fusion); also called Intersectin 1; ITSN1
T5 sequence (looked up): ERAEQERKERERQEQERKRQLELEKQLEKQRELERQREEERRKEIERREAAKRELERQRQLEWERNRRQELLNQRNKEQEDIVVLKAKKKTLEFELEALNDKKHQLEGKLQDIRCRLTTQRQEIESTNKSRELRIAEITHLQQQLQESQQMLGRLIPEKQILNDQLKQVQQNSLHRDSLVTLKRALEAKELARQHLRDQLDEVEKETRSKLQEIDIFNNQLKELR

[2] = target: T6, GTPase-activiating protein 1 1299-1555 (human, UniProt P46940 1299-1555); test: yeast two-hybrid
T6 construct: prey (Gal4 AD-HA fusion); also called IQGAP1; IQGAP
T6 sequence (looked up): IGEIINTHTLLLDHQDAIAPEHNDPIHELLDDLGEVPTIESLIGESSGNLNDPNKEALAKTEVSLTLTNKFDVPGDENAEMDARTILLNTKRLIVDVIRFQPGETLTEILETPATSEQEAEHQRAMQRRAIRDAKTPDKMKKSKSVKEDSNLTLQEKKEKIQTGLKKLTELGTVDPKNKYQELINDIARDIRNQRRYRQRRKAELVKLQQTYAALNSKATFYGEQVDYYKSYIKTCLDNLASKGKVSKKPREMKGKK

[3] = target: T7, Serum deprivation response 75-258 (human, UniProt O95810 75-258); test: yeast two-hybrid
T7 construct: prey (Gal4 AD-HA fusion)
T7 sequence (looked up): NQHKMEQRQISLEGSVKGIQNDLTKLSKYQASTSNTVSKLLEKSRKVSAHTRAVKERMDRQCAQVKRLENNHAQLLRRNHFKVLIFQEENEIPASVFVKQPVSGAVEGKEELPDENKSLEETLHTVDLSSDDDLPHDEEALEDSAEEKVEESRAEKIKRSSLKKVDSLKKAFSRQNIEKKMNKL

[4] = target: T8, GTPase-activiating protein 1 1413-1567 (human, UniProt P46940 1413-1567); test: yeast two-hybrid
T8 construct: prey (Gal4 AD-HA fusion); also called IQGAP1; IQGAP
T8 sequence (looked up): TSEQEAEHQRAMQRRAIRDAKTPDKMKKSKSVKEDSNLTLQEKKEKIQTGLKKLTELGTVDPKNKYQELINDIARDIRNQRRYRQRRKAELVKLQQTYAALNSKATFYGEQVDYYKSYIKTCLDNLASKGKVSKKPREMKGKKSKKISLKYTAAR

Keratin 8 147-406 = target: T9, Keratin 8 147-406 (human, UniProt P05787 147-406); test: yeast two-hybrid
T9 construct: prey (Gal4 AD-HA fusion)
T9 sequence (looked up): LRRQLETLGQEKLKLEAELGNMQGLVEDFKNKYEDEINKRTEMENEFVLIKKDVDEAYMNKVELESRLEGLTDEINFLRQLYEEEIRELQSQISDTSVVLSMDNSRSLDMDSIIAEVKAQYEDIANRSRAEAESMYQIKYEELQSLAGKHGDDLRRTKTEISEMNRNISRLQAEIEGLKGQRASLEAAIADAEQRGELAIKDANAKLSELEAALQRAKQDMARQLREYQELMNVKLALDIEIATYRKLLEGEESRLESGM

VPS28 protein 27-221 = target: T10, VPS28 protein 27-221 (human, UniProt Q9UK41 27-221); test: yeast two-hybrid, breast and prostate cancer library
T10 construct: prey (Gal4 AD-HA fusion); also called vacuolar protein sorting 28
T10 sequence (looked up): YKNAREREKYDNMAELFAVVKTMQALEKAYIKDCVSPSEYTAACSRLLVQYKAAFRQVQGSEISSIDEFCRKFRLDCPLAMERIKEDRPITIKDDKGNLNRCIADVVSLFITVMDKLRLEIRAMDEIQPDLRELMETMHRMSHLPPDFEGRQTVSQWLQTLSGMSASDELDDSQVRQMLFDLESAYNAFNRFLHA

Measured: binding result

B1: Tumor Suppressor (TSG101) 240-391 (other, human, UniProt Q99816 240-390, looked up)
chain: WRMKEEMDRAQAELNALKRTEEDLKKGHQKLEEMVTRLDQEVAEVDKNIELLKKKDEELSSALEKMENQSENNDIDEVIIPTAPLYKQILNLYAEENAIEDTIFYLGEALRRGVIDLDVFLKHVRLLSRKQFQLRALMQKARKTAGLSDLY
notes: range 240-391; bait (Gal4 DBD fusion); also called TSG101 240-390
binds: all assays above
